The text below walks through data of patent US20220306751A1 (MYTHIC THERAPEUTICS, published 2022).

Where a chain is given by its changes, count along the chain named.

This experiment addresses T1, CD123 Protein, His Tag, Acro Biosciences Cat. No. ILA-H52H6 (Homo sapiens (Human), UniProt P26951 19-305).
T1 construct: Bought protein; not shown: His tag
T1 sequence: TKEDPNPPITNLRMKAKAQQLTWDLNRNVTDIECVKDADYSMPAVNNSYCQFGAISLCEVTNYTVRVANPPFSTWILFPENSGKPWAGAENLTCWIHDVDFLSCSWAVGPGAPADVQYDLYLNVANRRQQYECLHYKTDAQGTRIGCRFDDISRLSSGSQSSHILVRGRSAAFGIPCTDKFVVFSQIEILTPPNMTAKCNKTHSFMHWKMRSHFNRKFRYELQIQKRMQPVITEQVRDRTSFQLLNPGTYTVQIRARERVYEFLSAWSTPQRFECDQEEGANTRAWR
Put plainly: BLI, IgG on anti-human Fc sensor, 50 nM CD123, pH 7.4 and pH 5.4. The source says: We selected IMGN632 (Heavy chain SEQ ID NO: 1, Light chain SEQ ID NO: 2) as a CD123-binding monoclonal antibody for pH engineering via histidine scanning. Briefly, CDRs in the heavy chain were identified using the methods described by Kabat et al (Kabat et al. (1992) Sequences of Proteins of Immunological Interest, DIANE publishing) and IMGT (Lefranc M P (1999) “The IMGT unique numbering for Immunoglobulins, T cell receptors and Ig-like domains” The Immunologist 7, 132-136), and for each CDR, residues falling under either or both Kabat and IMGT CDR definitions were called as CDR residues. To generate pH-dependent sequence variants, individual amino acid residues within the heavy chain CDRs were systematically substituted with a histidine, one at a time (MYT1252-MYT1292). In cases where the starting CDR residue was a histidine, it was mutated to an alanine. Antibody variants with only one histidine or alanine mutation in a heavy chain CDR were generated by co-transfection of Expi293 cells with a) one heavy chain sequence variant, and b) the corresponding starting ABPC light chain using methods known to the art. After allowing for four days of protein expression, cell culture supernatants were collected, quantified by SDS-PAGE analysis (FIG. 1), and the pH dependence of the variant was evaluated using biolayer interferometry (BLI) on an Octet RED 384 instrument. For constructs MYT1252, MYT1254-MYT1287, and MYT1289-1292, 104, of cell culture supernatant was diluted into 1904, of 1× PBST pH 7.4. For MYT1253 and MYT1288 254, and 504, of cell culture supernatant was diluted into 1754, and 1504, respectively. […] The resulting diluted supernatants were then captured on an anti-human Fc sensor (Forte Bio). A baseline was established using 1× PBST (50 mM Potassium Phosphate Buffer+150 mM NaCl+0.05% Tween 20) pH 7.4, and the sensor was associated with 50 nM of CD123 (CD123 Protein, His Tag, Acro Biosciences Cat. No. ILA-H52H6, Lot No. 1741d-89CF1-KB) in 1×PBST pH 7.4 for 120 sec to generate an association curve. In the dissociation phase, the antibody-antigen complex on the sensor was exposed to 1× PBST pH 7.4 for 300-600 sec. Baseline, association, and dissociation were repeated using 1×PBST pH 5.4 throughout in a separate condition.
In general terms: BLI is a label-free optical method that tracks binding on a fibre tip over time.

B1: MYT1253 (antibody, V domains shown)
VH: QVQLVQSGAEVKKPGASVKVSCKASGHIFTSSIMHWVRQAPGQGLEWIGYIKPYNDGTKYNEKFKGRATLTSDRSTSTAYMELSSLRSEDTAVYYCAREGGNDYYDTMDYWGQGTLVTVSS
VL: DIQMTQSPSSLSASVGDRVTITCRASQDINSYLSWFQQKPGKAPKTLIYRVNRLVDGVPSRFSGSGSGNDYTLTISSLQPEDFATYYCLQYDAFPYTFGQGTKVEIK
notes: IgG
In the case of B1, the binding result was “binds”.

B2: MYT1257 (antibody, V domains shown)
VH: B1 VH with H27Y, S31H
VL: B1 VL
notes: IgG
For B2, the binding result is reported as “binds”.

B3: MYT1267 (antibody, V domains shown)
VH: B1 VH with H27Y, N55H
VL: B1 VL
notes: IgG
Take B3: the binding result is “binds”.

B4: MYT1278 (antibody, V domains shown)
VH: B1 VH with H27Y, G66H
VL: B1 VL
notes: IgG
In the case of B4, the binding result was “binds”.

B5: MYT1283 (antibody, V domains shown)
VH: B1 VH with H27Y, G101H
VL: B1 VL
notes: IgG
B5: the binding result was “binds”.

B6: MYT1259 (antibody, V domains shown)
VH: B1 VH with H27Y, I33H
VL: B1 VL
notes: IgG
For B6, the binding result is “binds”.

B7: MYT1252 (antibody, V domains shown)
VH: B1 VH with G26H, H27Y
VL: B1 VL
notes: IgG
In the case of B7, the binding result was “binds”.

B8: MYT1262 (antibody, V domains shown)
VH: B1 VH with H27Y, Y50H
VL: B1 VL
notes: IgG
In the case of B8, the binding result is listed as “binds”.

B9: MYT1284 (antibody, V domains shown)
VH: B1 VH with H27Y, N102H
VL: B1 VL
notes: IgG
On to B9, for which the binding result is “binds”.

B10: MYT1269 (antibody, V domains shown)
VH: B1 VH with H27Y, G57H
VL: B1 VL
notes: IgG
B10: the binding result was “binds”.

B11: MYT1261 (antibody, V domains shown)
VH: B1 VH with H27Y, H35A
VL: B1 VL
notes: IgG
With B11, the binding result is “binds”.

B12: MYT1272 (antibody, V domains shown)
VH: B1 VH with H27Y, Y60H
VL: B1 VL
notes: IgG
Take B12: the binding result is recorded as “binds”.

B13: MYT1258 (antibody, V domains shown)
VH: B1 VH with H27Y, S32H
VL: B1 VL
notes: IgG
Turning to B13, the binding result is “binds”.

B14: MYT1265 (antibody, V domains shown)
VH: B1 VH with H27Y, P53H
VL: B1 VL
notes: IgG
As for B14, the binding result is “binds”.

B15: MYT1255 (antibody, V domains shown)
VH: B1 VH with H27Y, F29H
VL: B1 VL
notes: IgG
With B15, the binding result is “binds”.

B16: MYT1260 (antibody, V domains shown)
VH: B1 VH with H27Y, M34H
VL: B1 VL
notes: IgG
Consider B16, for which the binding result was “binds”.

B17: MYT1273 (antibody, V domains shown)
VH: B1 VH with H27Y, N61H
VL: B1 VL
notes: IgG
As to B17, the binding result was “binds”.

B18: MYT1266 (antibody, V domains shown)
VH: B1 VH with H27Y, Y54H
VL: B1 VL
notes: IgG
On to B18, for which the binding result was “binds”.

B19: MYT1279 (antibody, V domains shown)
VH: B1 VH with H27Y, A97H
VL: B1 VL
notes: IgG
For the molecule B19, the binding result is on record as “binds”.

B20: MYT1271 (antibody, V domains shown)
VH: B1 VH with H27Y, K59H
VL: B1 VL
notes: IgG
For B20, the binding result is “binds”.

B21: MYT1270 (antibody, V domains shown)
VH: B1 VH with H27Y, T58H
VL: B1 VL
notes: IgG
In the case of B21, the binding result is on record as “binds”.

B22: MYT1275 (antibody, V domains shown)
VH: B1 VH with H27Y, K63H
VL: B1 VL
notes: IgG
For B22, the binding result is “binds”.

B23: MYT1274 (antibody, V domains shown)
VH: B1 VH with H27Y, E62H
VL: B1 VL
notes: IgG
Turning to B23, the binding result was “binds”.

B24: MYT1263 (antibody, V domains shown)
VH: B1 VH with H27Y, I51H
VL: B1 VL
notes: IgG
For the molecule B24, the binding result is recorded as “binds”.

B25: MYT1277 (antibody, V domains shown)
VH: B1 VH with H27Y, K65H
VL: B1 VL
notes: IgG
In the case of B25, the binding result is “binds”.

B26: MYT1282 (antibody, V domains shown)
VH: B1 VH with H27Y, G100H
VL: B1 VL
notes: IgG
In the case of B26, the binding result is recorded as “binds”.

B27: MYT1276 (antibody, V domains shown)
VH: B1 VH with H27Y, F64H
VL: B1 VL
notes: IgG
As to B27, the binding result is “binds”.

B28: MYT1256 (antibody, V domains shown)
VH: B1 VH with H27Y, T30H
VL: B1 VL
notes: IgG
Turning to B28, the binding result is given as “binds”.

B29: MYT1280 (antibody, V domains shown)
VH: B1 VH with H27Y, R98H
VL: B1 VL
notes: IgG
B29: the binding result is “binds”.

B30: MYT1268 (antibody, V domains shown)
VH: B1 VH with H27Y, D56H
VL: B1 VL
notes: IgG
Take B30: the binding result is recorded as “binds”.

B31: MYT1254 (antibody, V domains shown)
VH: B1 VH with H27Y, I28H
VL: B1 VL
notes: IgG
With B31, the binding result is recorded as “binds”.
